One may read the stoichiometry N as the number of molecules, sites or subunits per partner or assembly.

Assay [1] deals with Recombinant BgAChBP2 (Biomphalaria glabrata). Description: negative-stain electron microscopy; refolded recombinant protein, 20 mM Tris-HCl pH 8.0 with 50 mM imidazole; 2% uranyl acetate; for BgAChBP1 a 3D reconstruction (~20 Å) from ~3000 negatively stained particles.
Assay [2] has as its target Biomphalaria glabrata acetylcholine-binding protein (BgAChBP), native rosette protein from hemolymph (Biomphalaria glabrata). Description: non-reducing SDS-PAGE; chromatographically enriched native BgAChBP under non-reducing against reducing conditions; disulfide-linked subunit dimers.
Assay [3] has the same target. Description: cryo-EM structure; native rosette protein at 1.2 mg/ml vitrified on C-flat holey carbon grids; 9770 single particles, icosahedral symmetry, resolution ~6 Å (FSC0.5 5.9 Å).

For Recombinant BgAChBP2 (natural protein), in assay [1], the stoichiometry N came out at 5.
As to “Biomphalaria glabrata acetylcholine-binding protein (BgAChBP), native rosette protein from hemolymph (complex)”, the values for the stoichiometry N in assay [2] and in assay [3] were 2 and 60, respectively.

The record behind these values is article PMC3423370.
